The record followed here is PMC8041869.

The term EC50 denotes the concentration needed to bring the measured effect to its halfway point. A lower EC50 goes with greater potency. In general, Kd refers to the constant that tells how readily two partners part at equilibrium.

Test [1] concerns the target SARS-CoV-2 S-protein receptor-binding domain (SARS-CoV-2) (UniProt P0DTC2). Put plainly: ELISA. On the technique in general: ELISA stands for enzyme-linked immunosorbent assay.
For test [2] the target is unchanged. The test is described as follows: BLI. In general terms: BLI is a label-free optical method that tracks binding on a fibre tip over time.

In test [1], “human ACE2 extracellular domain, E37K variant, Fc-tagged dimeric form (from UniProt Q9BYF1-1 18-615) (Fc fusion)” registered a half-maximal effective concentration (EC50) of 15.8 nM. The substance also returned a Kd in test [2] of 22.7 nM.
